Measurements: the nanobody polyreactivity screen of Harvey et al. (2022)

Test: yeast display, Sf9 membrane polyspecificity reagent, FACS + sequencing; frameworks hold sequencing errors
Outline: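 After 36–48 hours of galactose induction, yeast (Saccharomyces cerevisiae BJ5465) displaying a synthetic nanobody library were stained at 4 °C for 1 hour with 10% biotinylated, detergent-solubilized Sf9 membrane reagent. Streptavidin microbeads enriched the stained cells before FACS sorting into low and high (top ~1%) gates on anti-HA and streptavidin fluorescence. Each clone's polyreactivity label reflects its gate of origin.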

Row | Sequence | polyreactivity (PSR sort gate)
1 | QVQLVESGGGLVQAGGSLRLSCAASGGTFRNNAMGWYIQAPGKERELVAAISSSGTSTYYADSVKGRFTISRDNAKNTVYLQMNSLKPEDTAVYYCNADALGSPWWDHMDYWGQGTQVTVSS | low polyreactivity
2 | QVQLVESGGGLVQAGGSLRLSCAASGGTFRRYAMGWYRQAPGKERELVAAISWTGGSTYYADSVKGRFTISRDNAKNTVYLQMNSLKPEDTGVYYCAAVGSSSSKGGYWGQGTQVTVSS | high polyreactivity
3 | QVQLVESGGGLVQAGGSLRLSCAASGGTFRTYTMGWYRQAPGRVRELVAGISSRGGSTYYADSVKGRFTISRDNAKKTLYLQMNSLKPEDTAVYNCAVRHLNKRRDDYWGQGTQVTVSS | high polyreactivity
4 | QVQLVESGGGLVQAGGSLRLSCAASGGTFRTYVMGWYRQAPGKERELVAAISVSGGRTYYADSVKGRFTISRDNAKTTVYLQMNSLKPEDTAVYYCAAYWHGFFKYWEMGYWGQGTQVTVSS | high polyreactivity
5 | QVQLVESGGGLVQAGGSLRLSCAASGGTFRVYAMGWYRQAPGKERELFAAISSGGSTNYADSVKGRFTISRDNAKNTVYLQMNSLKPEDTAVYYCNAKYRYRFARSPIYYYWGQGTQVTVSS | high polyreactivity
6 | QVQLVESGGGLVQAGGSLRLSCAASGGTFRVYAMGWYRQAPGKERELVAAITGRGGSTYYADSVKGRFTISLDNAKNTVDLQMNSLKPEDTAVYYCAKDPVTTYYKYDYWGQGTQVTVSS | low polyreactivity
7 | QVQLVESGGGLVQAGGSLRLSCAASGGTFRYNAMGWYRQAPGKERELVAAIRWSGGRTYYADSVKGRFTISRDNAKNTVFLQINSLKPEDTAVYYCAALYRGYAVAASYYLWGLGTQVTVSS | high polyreactivity
8 | QVQLVESGGGLVQAGGSLRLSCAASGGTFRYYAMAWYRQAPGKERELVARIRYNGGSTYYADSVKGRFTISRDNAQYTVYLQMNSLKPEDTAVYYCAGRRTGGMGYWGQGTQVTVSS | high polyreactivity
9 | QVQLVESGGGLVQAGGSLRLSCAASGGTFRYYAMGWYRQAPGKERELVATINWSGGSTYADSVKGRFTISRDNAKNTVYLQMNSLKPEDTAVYYCNAGWWIPVYYWDEWYIYNYWGQGTQVTVSS | high polyreactivity
10 | QVQLVESGGGLVQAGGSLRLSCAASGGTFSKNAMGWYRQAPGKEREFVAAISSTGGDTTYYADSVKGRFTISRDNAKNTVYLQMNSLKPEDTAVYYCNADYIFWPWYDYWGQGTQVTVSS | low polyreactivity
11 | QVQLVESGGGLVQAGGSLRLSCAASGGTFSKYAMGWYRQAPGKEREFVAAITVSGGGTYYADSVKGRFTISRDNAKNPVYLQMNSLKPEDTAVYYCAADLAWTASDYWGHGTQVTVSS | low polyreactivity
12 | QVQLVESGGGLVQAGGSLRLSCAASGGTFSKYAMGWYRQAPGKEREFVAAITVSGGGTYYADSVKGRFTISRDNAKNTVYLQMNSLKPEDTAVYYCAADLGWTASDYWGQGTQVTVSS | low polyreactivity
13 | QVQLVESGGGLVQAGGSLRLSCAASGGTFSPYDMGWYRQAPGKERELFASITGSGGSTYYADSVKGRFTISRDNAKNTVYLQMNSLKPVDTAVYDCATQPLTWSSYRWDWRAQFDHWGQGTQVTVSS | low polyreactivity
14 | QVQLVESGGGLVQAGGSLRLSCAASGGTFSRYVMGWYRQAPGKERELVAAITRSGSTNYADSVKGRFTISRDNAKNTVYLQMNSLKPEDTAVYYCATDKRGRIGGTFDYWGQGTQVTVSS | low polyreactivity
15 | QVQLVESGGGLVQAGGSLRLSCAASGGTFSTYTMGCYRQAPGKERELVAGISGRGGSTRYADSVKGRFTISRDNAKNTVYLQMNSLKPEDTAVYYCNARKRSYWGIVFVGLYDYWGQGTQVTVSS | high polyreactivity
16 | QVQLVESGGGLVQAGGSLRLSCAASGGTFSYYAMGWYRQAPGKERELVAAISKRGGSTYYADSVKGRFTISRDNAKNTVYLQMNSLKPEDTAVYYCARGYSWSVGYPRVQDMDYWGQGTQVTVSS | high polyreactivity
17 | QVQLVESGGGLVQAGGSLRLSCAASGGTFTPYDMGWYRQAPGKERELVASITGSGGSTYYADSVKGRFTISRGNAKNTVYLQMNSLKPEDTAVYYCAAQGYWTYWPYLLRLYDYWGQGTQVTVSS | low polyreactivity
18 | QVQLVESGGGLVQAGGSLRLSCAASGGTFTSNAMGWYRQAPGKERELVAAISSRGGTYYADSVKGRFTISRDNAKNTVYVQMNSLKPEDTAVYYCAARGYLYSWNVSHTYDYWGQGTQVTVSS | high polyreactivity
19 | QVQLVESGGGLVQAGGSLRLSCAASGGTFVGYAMGWYRQAPGKEREFVAAISGSGGSTYYADSVKGRFTISRDNAKNTVYLQMNSLKPEDTAVYYCAARAVSRRFDYWGQGTQVTVSS | high polyreactivity
20 | QVQLVESGGGLVQAGGSLRLSCAASGGTFVGYAMGWYRQAPGKERELVAAINSSGGRTYYADSVKGRFTISRDNAKNTVYLQMNSLKPEDTAVYYCAKPRTYHKDKYDYWGQGTQVTVSS | high polyreactivity
21 | QVQLVESGGGLVQAGGSLRLSCAASGGTFVHNAMGWYRQAPGKERELVAAISWSGGSTYYADSVKGRFTISRDNAKNTVYLQMNSLKPEDTAVYYCAADLPDYKDIFDSWGQGTQVTVSS | low polyreactivity
22 | QVQLVESGGGLVQAGGSLRLSCAASGGTFVQYVMGWYRPAPGKERELVAAISASGGRTYYADSVKGRFTISRDNAKNSVYLQMNSLKPEDTAVDYCAAERKGSVTYEYDYWGQGTQVSVSS | high polyreactivity

Row | Sequence | polyreactivity (PSR sort gate)
23 | QVQLVESGGGLVQAGGSLRLSCAASGGTFVRNTMGWSRQAPGKERELVAGITKNGGSTYYADSVKGRFTISRDNAKNTVYLQMNSLKPEVTAVYYCAIYVSWPLYYYWGQGTQVTVSS | low polyreactivity
24 | QVQLVESGGGLVQAGGSLRLSCAASGGTFVSYAMGWYRQAPGKERELVAAITYSGGSTYYADSVKGRFTISRDNAKNTVYLQMNSLKPEDTGVYYCAAPKFSYFSYSPRGKFKYEYWGQGTQVTVSS | low polyreactivity
25 | QVQLVESGGGLVQAGGSLRLSCAASGGTFWDYAMGWYRQAPGKERELVAAITYGTASTDYADSVKGRFTISRDNAKNTVYLQMNSLKPEDTAVYYCAARWNQYPYSYSTYDYWGQGTQVTVSS | low polyreactivity
26 | QVQLVESGGGLVQAGGSLRLSCAASGGTFWSYAMGCYRQAPGKEREFVAAITTSAGRTNYADSVKGRFTISRDNAKNTVYLQMNSLKPEDTAVYYCAARSAYPGLGYGFDYWGQGTQVTVSS | low polyreactivity
27 | QVQLVESGGGLVQAGGSLRLSCAASGGTFYANAMGWYRQAPGKERELVATITSSSGSTSYADSVKGRFTISRDNAKNTVYLQMNSLKPEDTAVYYCAKDSHAQGPYRYKHYHHTGDYWGQGTQVTVSS | low polyreactivity
28 | QVQLVESGGGLVQAGGSLRLSCAASGGTFYDNDMGWYRQAPGKERELVATITYSGTSTYYADSVKGRFTISRDNAKNTVYLELNSLKTEDTAVYYCATDVLLYFEPVNLDYWGEGTQVTVSS | low polyreactivity
29 | QVQLVESGGGLVQAGGSLRLSCAASGGTFYGYAMGWYRQAPGKERELVAAINYRGGRTYYADSVKGRFTISRDNAKNTVYLQMNSLKPEDTAVYDCAATSDRLDGYDYWGQGTQVTVSS | high polyreactivity
30 | QVQLVESGGGLVQAGGSLRLSCAASGGTFYIYVMGWYIQAPGKERELVAAITSGDSTNYADSVKGRFTISRDNAKNTVYLQMNSLKPEDTAVYYCATGYWELRYDYWGQGTQVTVSS | low polyreactivity
31 | QVQLVESGGGLVQAGGSLRLSCAASGGTFYRYAMGWYRQAPGKERELVAAISSNGGSTYYADSVKGRFTISRDNAKNTVYLQMNSLKPEDTAVYYCAAARDSIVYGQYDYWGQGTQVTVSS | low polyreactivity
32 | QVQLVESGGGLVQAGGSLRLSCAASGGTFYRYAMGWYRQAPGKERELVAAISSSGGSTYYADSVKGRFTISRNNAKNTVYLQMNSLKPEDTAVYYCAAYSFQSHNFDYWGQGTQVTVSS | high polyreactivity
33 | QVQLVESGGGLVQAGGSLRLSCAASGGTFYRYAMGWYRQAPGKERELVAAITDSGGSTYYADSVKGRFTISRDNAKNTVYLQMNSLKPEDTAVYYCAAEDIDYTDVTSGYEYWGQGTQVTVSS | high polyreactivity
34 | QVQLVESGGGLVQAGGSLRLSCAASGGTFYSYAMGWYRQAPGKERELVAAISRRGGSTYYADSVKGRFTISRDNAKNTVYLQMNSLKPEDTAVYYCNTYIYQVRDDYWGQGTQVTVSS | high polyreactivity
35 | QVQLVESGGGLVQAGGSLRLSCAASGGTFYTNVMGWYREAPGKERELVAAITRSGGSTHYADSVKGRFTISRDNAKNTVYLQMNSLKPEDTAVYYCAVGSPYYDGMDYWGQGTQVTVSS | low polyreactivity
36 | QVQLVESGGGLVQAGGSLRLSCAASGGTFYTNVMGWYRQAPGKERELVAAITRSGGSTHYADSVKGRFTISRDNAKNTVYLQMNSLKPEDTAVYYCAKDRVGEMYYWGQGTQVTVSS | low polyreactivity
37 | QVQLVESGGGLVQAGGSLRLSCAASGGTIAYAMGWYRQAPGKERELVAAISKHGGRTYYADSVKGRFTISRDNAKNTVYLQMNSLKPEDSAVYYCAADAFRGFYWGQGTQVTVSS | high polyreactivity
38 | QVQLVESGGGLVQAGGSLRLSCAASGGTLASYAMGRYRQATGKERELVAAITRGGGSTHYADSVKGRFTISRDNAKNTVYLQMNSLKPADTAVYYCNARVRPGYGYWGQGTQVTVSS | high polyreactivity
39 | QVQLVESGGGLVQAGGSLRLSCAASGGTLAYYAMGWYRQAPGKERELVAAITRSGGSTYYADSVKGRFTISRDNAKNTVYLQMNSLKPEDTAVYYCAALLAYCKNRWHIEYDYWGQGTQVTVSS | low polyreactivity
40 | QVQLVESGGGLVQAGGSLRLSCAASGGTLDVYAMGWYRQAPGKEREFVAAISWSGGRTYYADSVKGRFTISRDNAKNTVYLQMHSLKPEDTAVYYCATRDRAGYYYWGQGTQVTVSS | high polyreactivity
41 | QVQLVESGGGLVQAGGSLRLSCAASGGTLYTYAMGWYRQAPGKEWEFVAAITVSGGRTYYADSVKGRFPISRDNAKNTVYLQINSLKPEDTAVYYCAARYWSWRSFKVDYWGQGTQVTVSS | high polyreactivity
42 | QVQLVESGGGLVQAGGSLRLSCAASGGTQVKYAMGWYRQAPGKERELVAAISRSTGNTYYADSVKGRFTISRDNAKNTVYLQMNSLKPEDTAVYYCAALKYTVGGKFGYWGQGTQVTVSS | high polyreactivity
43 | QVQLVESGGGLVQAGGSLRLSCAASGGTRAHNAMGLYRQAPGKERELVAAISWRGGSTYYADSVKGRCTISRDNAKNTVYLQMNSLKPEDTAVYYCAKEQYVPDRPSFKNLNTYDYWGQGTQVTVSS | low polyreactivity
